The DeepSol protein solubility set

Experiment: soluble on expression in E. coli; label from the status in PepcDB or PDB records

| Sequence | soluble on expression in E. coli |
| --- | --- |
| MKAYVALLHSIVLGDGRRVVMADLKAMAEALGCRAPRTLVATGNLLFEAPEKPLAELEAELEKAFEKTFGRHVDIIVRSAEDWSRLAAGNPFLAESERDPASVHVRVMRLPLEVDMREKLLGYCSRGERVAIVDGDLWVDFAGKASESKLLGALTTKRLGIGTVRNWNTVKGLRGMVAG | not soluble |
| MKCNMCPRACNVDRNVNTGFCGMTNDIYAARAALHMWEEPCISGEHGSGAVFFSGCTLRCIFCQNSEIAAAQVGKKITVERLSDIFLELQDKCANNINLVTATHFVPQVAEALVKAKNKGLVIPVVYNSSAYENVSTLNMLDGLVDVYLPDMKYIDSRLSAEYSKAPDYADVAKAAIHEMVRQTGKLEFFIEDDELVKSGRVEAGIMKKGVIVRHLVLPGTTKDSKAVIKYLIDTYGDDIYISIMSQYTPFDRLKKHPLLSRKVTRKEYNSVVDYAIDCGINNGFIQEGDVAEESFIPEFDYEGI | not soluble |
| MKCPFCNPIKENILYEDDTIRILLDNYPANPGHLLIVPRRHVTKLEELSEGEKASLLRGIEIAIEALKKTLNPDGFNVGINIGKAAGQTVEHLHIHVIPRFNNDCKYPKGGIRKAVLDVKDENLEDEERWTKNRLPREKVEELRRALHGG | soluble |
| MKDDRYPSEWAQLALQKKQSVNWACERCGVQCLKPGEGKGLSTGDRYRLRMAVHHCDYDPGNNSPSNLKALCSPCHLYFHRRQRGNVIPGQLRLKFSFLILEHHHHHH | soluble |
| MKDFKLAKSKSHAIEETKPFSILLMGVDTGSEHRKSKWSGNSDSMILVTINPKTNKTTMTSLERDVLIKLSGPKNNGQTGVEAKLNAAYASGGAEMALMTVQDLLDINVDYFMQINMQGLVDLVNAVGGITVTNKFDFPISIAANEPEYKAVVEPGTHKINGEQALVYSRMRYDDPEGDYGRQKRQREVIQKVLKKILALNSISSYKKILSAVSNNMQTNIEISSKTIPNLLAYKDSLEHIKSYQLKGEDATLSDGGSYQILTKKHLLAVQNRIKKELDKKRSKTLKTSAILYEDYYGLEHHHHHH | soluble |
| MKDKKTISILGCGWLGLPLAEAFIQSGFRVKGSTTREERLSVIEAAGAEGYVLKADGGAWTGERLNDFLRCDILLIAIPPGTKRNANSTHAVEIGQLMDHIKKYSIAIKQLIYISSTSVYKNINSVVIESDTAIPSNIGNQILFQAEKHVHESVIERKLILRLGGLTGYDRMLGRFFAGKQELAGGNEPVNLVHRDDVVACILFLLKNGIGEQVFNICSPQHPSRKEFYTRLCDRFNLPEPH | not soluble |
| MKDKYLIIDGYNMIGQSPELGKIAKDNLQEAREQLLDAIANYNAVVADEIVCVFDAYEQSGIEREYIYHGVKTVFTKEKETADSYIERYVYNLYNKHTTHITVVTSDMSEQHAIFGAGAYRVSSREMWRDLRENEITVSKSLDDFTESKPRTRISLSNDVLAEFEKIRRGNHNKDLEHHHHHH | not soluble |
| MKDLKKIESYLDKLRIKEKDGEERKIYAEVLDGRTLKTLYKLSAKGYITAMGGVISTGKEANVFYADGVFDGKPVAMAVKIYRIETSEFDKMDEYLYGDERFDMRRISPKEKVFIWTEKEFRNLERAKEAGVSVPQPYTYMKNVLLMEFIGEDELPAPTLVELGRELKELDVEGIFNDVVENVKRLYQEAELVHADLSEYNIMYIDKVYFIDMGQAVTLRHPMAESYLERDVRNIIRFFSKYGVKADFEEMLKEVKGE | soluble |
| MKDPDRWMDVKEFLPLLAQKEWYTKTRFGYARGHEPVVYVQNIRRYYDVLVRITEPDAPSASGLEDQLAWLEHHHHHH | not soluble |
| MKEDPRIIKTLSKLQKAFVMLLKTYDAGDINVRQISDEAGVTRGAFYSHFSDKKEFVNFTINELVGSLFNSSLKDSVGFVDEVNHKNAHGTNVLSVSNFFDKVAADYQTYTIVLDTEKLPQFTEVLKERLNSEIKTFAEYYGKKVKHDGFPIEVLSSYYVNGLIGMIRMWLDEGMVYTSHYMANAAKKILGTKIQIDSQNIDLSDFFVDLEHHHHHH | soluble |
| MKEELIERFTRYVKIDTQSNEDSHTVPTTPGQIEFGKLLVEELKEVGLTEVTMDDNGYVMATLPANTDKDVPVIGFLAHLDTATDFTGKNVKPQIHENFDGNAITLNEELNIVLTPEQFPELPSYKGHTIITTDGTTLLGADDKAGLTEIMVAMNYLIHNPQIKHGKIRVAFTPDEEIGRGPAHFDVEAFGASFAYMMDGGPLGGLEYESFNAAGAKLTFNGTNTHPGTAKNKMRNATKLAMEFNGHLPVEEAPEYTEGYEGFYHLLSLNGDVEQSKAYYIIRDFDRKNFEARKNTIENIVKQMQEKYGQDAVVLEMNDQYYNMLEKIEPVREIVDIAYEAMKSLNIEPNIHPIRGGTDGSQLSYMGLPTPNIFTGGENYHGKFEYVSVDVMEKAVQVIIEIARRFEEQA | not soluble |
| MKEKTPFKNEKEFHDMVKKTKKGTFSGWYIVNPENNSVEFSGNFNRQFKLNKPVIPVNTEYVTRKEFNEYKDSNDQRLIKIETTLAAQGEQIRIQGEQIKELQIEQKAQSETLKLILQTLQKMSDRLDKMDVRLDKLESK | soluble |
| MKERMQKTSAQAHDFPQRARTESEWYEGVQTFMWMTEDNIVEVPFDKEHLLEIILSPSNLNKAYKAVVRNNGSGGIDKMSCEQLLSWLKANKDELIISLQSGTYRPNPVRRVEIPKDNGKKRLLGIPTVVDRLVQQAINQVLTLIYERQFSKTSYGFRPQRGCHDALRKAQKIVSEGYIYVVDLDLERFFDTVSHSKLIEILSRTIKDGRVISLIHKYLRSGVINRGMFEMSTEGTPQGGPLSPLLSNIMLNELDKELERRGHPFVRYADDAMIFCKSKRAAKRVRESITLFIEGKLFLKVNHEKTVVSYVKGVKFLGYSFYVKKGDCILLVHSKSKNKMKSKLKELTSRSNGWGYEKRKQKLKDYIRGWIAYFCLAQMKRLCIETDEWLRRRIRMCIWKSWKNAKTRVANLKKCGVSEWQAYQWGNTRLGYWRVSNSPIVTFVMSNDKLRKAGYMEFMDCYLKWCPK | not soluble |
| MKERTIQPVNNGLNGNITIPGDKSISHRAVMFGAIAEGTTTIKGFLPGADCLSTISCFKEMGVDIVQNGDEVTVVGKGLEGLQEPKAVLDVGNSGTTIRLMSGILANTPFLSCVQGDTSIAKRPMKRVTNPLKQMGANIDGREEGTFTPLTIRGGDLKAIEYTSPVASAQVKSAILLAGLRAEGVTAVTEPHISRDHTERMLEAFGVKVTREGKTVKLAGGQKLTATDVQVPGDVSSAAFFLVAGAIIPNSKLVLENVGMNPTRTGIIDVLEKMGATFTVEPINEGASEPAANITIETSSLKGIEIGGDIIPRLIDEIPVIALAATQAEGITVIKDAHELKVKETNRIDTVVAELTKLGARIEATDDRMIIYGKSALKGNTVNSYGDHRIGMMLAIAGCIAEGKTIIEDAEAVGVSYPTFFEELQKLAK | not soluble |
| MKEVLFISEMERGRAEIESRVSNIKTTQDFGYREKIKEKKDASTAYAACISELLLEEKVKKIAVAYDFPIFYSNYLTEAGFTIVPVKSPFRKMRSVKGPEEIEAIKYAQMAGEKAMEAAITLIADAEEKDGVLYFEGQVLTGAKVNSVIDHTLLDFGCEAEETIVSCGEDTSNPHGTTEGPLRANAPIILDIFPRSKKKRYFADMTRTVLRGEASEKLKEMYETVLVAQQKALEMVKPGIHSSEIHRAVCDLFEARGYHTYRSGSKAGFTHSTGHGVGLDIHELPSVGESGVLLETGNVITIEPGLYYPGIGGIRLEDMVLVTKTGYENFTGLEKKFVLKSFYNLEHHHHHH | not soluble |
| MKEVQETAEKIRTMEIRGAGRIAKAAAEVIRDYAAGLEAASIEEFAAGITEVSNYLISTRPTAVSLPNAVKLSSRYSSDNVENARKEVINNANLFIERADKALGRIGKIGAGRVQDGDVIMTHCNSHAALSIITTAFEDGKNISVIATESRPRRQGLLTVRRLNGFGIPTTLIVDSAVRYYMKDVDKVIVGADAIAANGALVNKIGTSQLALAAHEARKSFMVAAETFKFSPSTILGIPIEIEERSTDEVVDPSVLAELPHVQVKNPAFDFTPSEYIDMIVTDIGIIPPAMAYIVIKEHLGWEFEEIAAALEHHHHHH | not soluble |
| MKEYRIDDLAREARVSVRNVRVYQDRGLLPPPRKQGRTGWYNESHLARLHLIGRMLDRGYTFATISELLTAAHYGLQVKDVLETDDPGSRWKKRRRAARLTIAELKRMFGAQTTEANIAKGTELGVLVPAGDDYSVNDPRLVEAAQVLVDAGIPLEAVLEQTAAVRRDLSDVAARFVAVVADRYLAAEGEPLELDEAKVSEIARLVDQMRPLAHDAVQSLFEEAMEEQISKALERAARQLGETPGPATSTDTNRAS | not soluble |
